Data taken from patent publication US20210210159A1, “COMPUTATIONAL PROTEIN DESIGN USING TERTIARY OR QUATERNARY STRUCTURAL MOTIFS” (Trustees of Dartmouth College, priority 2018, published 2021).

Tests used:
[1] = Fast Protein Liquid Chromatography / size-exclusion chromatography, oligomeric state; assay type: physicochemical; settings: concentration of at least 10 μM
Description: Based on the standards, the dimeric protein would be expected to elute at the volume indicated by a dotted line, which eliminates the possibility of design oligomerization.

[2] = Chemical denaturation by guanidinium hydrochloride (GuHCl), chromophore absorbance at 587 nm; assay type: physicochemical; settings: compared with original mCherry
Description: Degree of foldedness was monitored via chromophore absorbance at 587 nm. Because the chromophore rapidly […], this constitutes a sensitive metric of structure. Data are fit to the Hill equation, with the concentration of half denaturation noted in the legend.
Thus, by all measures, the designed protein, which differs from the original mCherry in 48 positions, preserved the starting structure and even function.

B1: design: TERM-based surface-redesigned mCherry, 48 of 64 variable surface positions changed (SEQ ID NO. 2) (protein)
chain: MVSKGEEDNMAIIKEFMTFEVEMEGTVNGHPFRIRGSGGGDPYEGTQTARLEVVEGGPLPFAWDILSPQFMYGSKAYVKHPADIPDYLKLSFPEGFTWTRTMEFEDGGTVKVTQTSTLKDGKFHYKVKLTGSNFPSDGPVMQKKTMGWEASTERMRPKDGKLEGEIDQELRLKDGGYYRARVRTTYKAKKPVQLPGAYTVRIRLEITSHNEDYTEVEQTETAKGEHSTGGMDELYK
modifications: TERM-based designed sequence
oligomeric state in solution [1]: monomeric | protection of chromophore on chemical denaturation [2]: approximately as well as the original mCherry
